Biological target: T1, Bfl-1, Q16548
T1 chain: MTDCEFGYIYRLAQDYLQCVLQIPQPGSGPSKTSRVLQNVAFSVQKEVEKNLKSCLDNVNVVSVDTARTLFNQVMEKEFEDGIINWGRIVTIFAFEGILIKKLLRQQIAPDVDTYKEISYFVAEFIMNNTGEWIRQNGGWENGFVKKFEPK
Experiment: peptide SPOT array, c-Myc-tagged receptor at 1 uM or 100 nM, anti-c-Myc-Cy3

Binder	SPOT signal as a fraction of Bim BH3's signal on the same receptor and array
RTNNYQLSDELRKNGVELTSLRQKVA [GRIPAP1]	0.48
DSLAKFAGRKLKDCGEDLLVEISEVL [PCM1]	0.01
LGHTGLACLFLKRGADLGARDSEGRD [ACAP1]	0.21
DIDEGLYSRQLYVLGHEAMKRLQTSS [UBA1]	0.09
PRPLSILGNLLLLCSQDMLTSLTKLS [CYP2F1]	0.33
TCLNRGFSRLLDNMAEFFRPTEQDLQ [PEX3]	0.04
RAIPIKQGILLKRSGKSLNKEWKKKY [AGAP3]	0.52
KCRHEEVVQVLRNAGEEVTLTVSFLK [SNTG1]	0.02
TSQTEGLSRLLRQHAEDLNSGPLSKL [FES]	0.05
GMTSEQVAQVLRNCGNSVRMLVARDP [INADL]	0.15
ASEANLFEEALEKYGKDFTDIQQDFL [MTA1]	0.01

Biological target: T2, Bcl-w, Q92843
T2 chain: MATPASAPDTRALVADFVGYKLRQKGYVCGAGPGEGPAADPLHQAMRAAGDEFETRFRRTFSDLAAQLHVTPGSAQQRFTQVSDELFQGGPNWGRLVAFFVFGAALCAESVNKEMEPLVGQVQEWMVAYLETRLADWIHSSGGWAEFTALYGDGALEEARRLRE
Experiment: as above

Binder	SPOT signal as a fraction of Bim BH3's signal on the same receptor and array
RTNNYQLSDELRKNGVELTSLRQKVA [GRIPAP1]	0.51
DSLAKFAGRKLKDCGEDLLVEISEVL [PCM1]	0.02
LGHTGLACLFLKRGADLGARDSEGRD [ACAP1]	0.1
DIDEGLYSRQLYVLGHEAMKRLQTSS [UBA1]	0.03
PRPLSILGNLLLLCSQDMLTSLTKLS [CYP2F1]	0.11
TCLNRGFSRLLDNMAEFFRPTEQDLQ [PEX3]	0.03
RAIPIKQGILLKRSGKSLNKEWKKKY [AGAP3]	0.64
KCRHEEVVQVLRNAGEEVTLTVSFLK [SNTG1]	0.01
TSQTEGLSRLLRQHAEDLNSGPLSKL [FES]	0.09
GMTSEQVAQVLRNCGNSVRMLVARDP [INADL]	0.06
ASEANLFEEALEKYGKDFTDIQQDFL [MTA1]	0.02

biological target: Bcl-xL, Q07817; experiment: as above
Sequence (Q07817 1-209): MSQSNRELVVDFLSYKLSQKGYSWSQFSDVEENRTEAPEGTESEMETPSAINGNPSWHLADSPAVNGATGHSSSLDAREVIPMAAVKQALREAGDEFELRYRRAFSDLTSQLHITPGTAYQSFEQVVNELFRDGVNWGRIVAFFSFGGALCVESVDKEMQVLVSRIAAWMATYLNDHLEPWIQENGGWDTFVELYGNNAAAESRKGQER

Binder	SPOT signal as a fraction of Bim BH3's signal on the same receptor and array
RTNNYQLSDELRKNGVELTSLRQKVA [GRIPAP1]	0.39
DSLAKFAGRKLKDCGEDLLVEISEVL [PCM1]	0.02
LGHTGLACLFLKRGADLGARDSEGRD [ACAP1]	0.14
DIDEGLYSRQLYVLGHEAMKRLQTSS [UBA1]	0.05
PRPLSILGNLLLLCSQDMLTSLTKLS [CYP2F1]	0.2
TCLNRGFSRLLDNMAEFFRPTEQDLQ [PEX3]	0.06
RAIPIKQGILLKRSGKSLNKEWKKKY [AGAP3]	1.42
KCRHEEVVQVLRNAGEEVTLTVSFLK [SNTG1]	0.02
TSQTEGLSRLLRQHAEDLNSGPLSKL [FES]	0.05
GMTSEQVAQVLRNCGNSVRMLVARDP [INADL]	0.18
ASEANLFEEALEKYGKDFTDIQQDFL [MTA1]	0.03

Biological target: T3, Mcl-1, Q07820
T3 chain: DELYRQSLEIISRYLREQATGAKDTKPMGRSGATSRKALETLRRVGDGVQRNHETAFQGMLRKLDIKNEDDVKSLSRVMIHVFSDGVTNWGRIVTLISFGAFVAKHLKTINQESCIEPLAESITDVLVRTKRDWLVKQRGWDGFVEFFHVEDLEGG
Experiment: as above

Binder	SPOT signal as a fraction of Bim BH3's signal on the same receptor and array
RTNNYQLSDELRKNGVELTSLRQKVA [GRIPAP1]	0.19
DSLAKFAGRKLKDCGEDLLVEISEVL [PCM1]	0.02
LGHTGLACLFLKRGADLGARDSEGRD [ACAP1]	0.045
DIDEGLYSRQLYVLGHEAMKRLQTSS [UBA1]	0.04
PRPLSILGNLLLLCSQDMLTSLTKLS [CYP2F1]	0.08
TCLNRGFSRLLDNMAEFFRPTEQDLQ [PEX3]	0.04
RAIPIKQGILLKRSGKSLNKEWKKKY [AGAP3]	0.35
KCRHEEVVQVLRNAGEEVTLTVSFLK [SNTG1]	0.02
TSQTEGLSRLLRQHAEDLNSGPLSKL [FES]	0.02
GMTSEQVAQVLRNCGNSVRMLVARDP [INADL]	0.07
ASEANLFEEALEKYGKDFTDIQQDFL [MTA1]	0.03

biological target: Bcl-2, P10415; experiment: as above
Sequence (P10415 1-217): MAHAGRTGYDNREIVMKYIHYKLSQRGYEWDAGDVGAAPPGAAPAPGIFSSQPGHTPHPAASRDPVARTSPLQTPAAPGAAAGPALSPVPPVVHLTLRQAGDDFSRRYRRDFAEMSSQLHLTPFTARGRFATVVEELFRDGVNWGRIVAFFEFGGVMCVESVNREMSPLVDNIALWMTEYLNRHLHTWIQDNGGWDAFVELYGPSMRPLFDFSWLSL

Binder	SPOT signal as a fraction of Bim BH3's signal on the same receptor and array
RTNNYQLSDELRKNGVELTSLRQKVA [GRIPAP1]	0.14
DSLAKFAGRKLKDCGEDLLVEISEVL [PCM1]	0.01
LGHTGLACLFLKRGADLGARDSEGRD [ACAP1]	0.03
DIDEGLYSRQLYVLGHEAMKRLQTSS [UBA1]	0.02
PRPLSILGNLLLLCSQDMLTSLTKLS [CYP2F1]	0.03
TCLNRGFSRLLDNMAEFFRPTEQDLQ [PEX3]	0.02
RAIPIKQGILLKRSGKSLNKEWKKKY [AGAP3]	0.19
KCRHEEVVQVLRNAGEEVTLTVSFLK [SNTG1]	0.01
TSQTEGLSRLLRQHAEDLNSGPLSKL [FES]	0.01
GMTSEQVAQVLRNCGNSVRMLVARDP [INADL]	0.04
ASEANLFEEALEKYGKDFTDIQQDFL [MTA1]	0.01

Source: paper PMC4072508, “Genome-Wide Prediction and Validation of Peptides That Bind Human Prosurvival Bcl-2 Proteins” (PLoS Computational Biology, 2014)
